Changes are numbered by the printed parent chain. One block for each binder: values may come before it.
Legend:
[1] = target: T1, chimeric OX40 construct 1548: Human OX40 with mouse module 3 and domains 4A and 4B (aa 108-167) (human; mouse, UniProt P47741 104-165); assay: flow cytometry, transfected 293-F cells
T1 construct: domain: module 3 and domains 4A and 4B; On 293-F cells; limits derived as for 1544
T1 sequence: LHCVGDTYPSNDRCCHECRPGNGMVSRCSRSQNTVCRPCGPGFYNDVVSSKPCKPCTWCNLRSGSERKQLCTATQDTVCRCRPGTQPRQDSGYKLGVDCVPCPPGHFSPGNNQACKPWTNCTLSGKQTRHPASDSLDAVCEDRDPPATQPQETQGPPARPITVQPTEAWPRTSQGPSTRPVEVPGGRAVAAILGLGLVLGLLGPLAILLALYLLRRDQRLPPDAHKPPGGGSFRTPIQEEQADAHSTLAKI
Procedure: (§1) The mouse/human chimeras were transiently transfected into FreeStyle 293-F cells (Invitrogen), incubated 48 hours in FreeStyle 293 expression medium (Invitrogen) 37 C, 8% CO₂, 135 rpm. The transfected cells were incubated with human OX40 antibodies, human OX40L (hOX40L, RnD Systems), mouse OX40L (mOX40L, RnD Systems) and controls for 30 min 4° C. and then detected with a-huIgG-PE (Jackson lmmunoresearch) 30 min 4° C. Cells were analyzed with FACS Verse (BD Biosciences). Binding to the different chimeric constructs were calculated as relative (mean fluorescence intensity) MFI compared to the binding of the isotype control.

[2] = target: T2, CTLA4-Fc (Fitzgerald, #30R-CD152) (human, UniProt P16410 38-152, biotinylated where used as soluble reagent in the inhibition ELISAs); assay: SPR (Biacore); ratio [Kd for CD28]/[Kd for CTLA-4]
T2 construct: Bought reagent; also called human CTLA-4 (Fitzgerald); biotinylated-CTLA4
T2 sequence (P16410 38-152 limits assumed): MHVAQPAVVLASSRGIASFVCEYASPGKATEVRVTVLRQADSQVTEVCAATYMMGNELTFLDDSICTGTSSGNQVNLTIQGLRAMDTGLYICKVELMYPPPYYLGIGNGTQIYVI
Procedure: Either CTLA4-Fc (Fitzgerald, #30R-CD152) or CD28-Fc (R&D Systems, 342-CD) was immobilized to the Biacore™ sensor chip, CM5, using conventional amine coupling. […] The association was followed for 3 minutes and the dissociation for 10 minutes. Regeneration was performed twice using 5 mM NaOH for 30 seconds. The kinetic parameters and the affinity constants were calculated using BIAevaluation 4.1 software (Table 1.3).

[3] = target: T2, CTLA4-Fc (Fitzgerald, #30R-CD152); assay: binding ELISA; ratio [EC50 for CD28-Fc]/[EC50 for CTLA4-Fc]
Procedure: 96-well flat bottom high binding plates (Greiner, #655074) were coated with either CTLA4-Fc (Fitzgerald, #30R-CD152) or CD28-Fc (R&D systems, 342-CD) by incubating overnight at 4° C. […] The plates were washed again and sample or controls (serially diluted 1/5 from 200-0.001 μg/ml) were added to the wells. The samples were incubated for 1 h at room temperature and then washed. Detection antibody, goat-anti-human IgG Fcγ-HRP (Jackson, #109-035-098) was added and the plates were subsequently developed using SuperSignal Pico Chemiluminescent substrate (Thermo Scientific, #37069) and detected with an Envision reader (Perkin Elmer). EC50 values were calculated for both CTLA4 and CD28. The binding ratio (EC50 binding ratio=[EC50 for CD28]÷[EC50 for CTLA-4]) was calculated for each polypeptide and is shown in Table 1.1.

[4] = target: T3, chimeric OX40 construct 1545: Human OX40 with mouse domains 1B, 2A and 2B (aa 43-107) (human; mouse, UniProt P47741 39-103); assay: flow cytometry, transfected 293-F cells
T3 construct: domain: 1B, 2A and 2B; On 293-F cells; limits derived as for 1544
T3 sequence: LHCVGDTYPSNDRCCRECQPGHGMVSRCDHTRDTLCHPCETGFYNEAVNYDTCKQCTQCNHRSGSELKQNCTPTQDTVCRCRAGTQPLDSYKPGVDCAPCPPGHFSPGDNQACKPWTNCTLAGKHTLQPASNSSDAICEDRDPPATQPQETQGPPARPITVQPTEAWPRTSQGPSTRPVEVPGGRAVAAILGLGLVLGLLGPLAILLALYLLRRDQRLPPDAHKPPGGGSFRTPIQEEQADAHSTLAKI
Procedure: as §1

[5] = target: T4, chimeric OX40 construct 1546: Human OX40 with mouse domains 2A, 2B and module 3 (aa 66-126) (human; mouse, UniProt P47741 62-124); assay: flow cytometry, transfected 293-F cells
T4 construct: domain: 2A, 2B and module 3; On 293-F cells; limits derived as for 1544
T4 sequence: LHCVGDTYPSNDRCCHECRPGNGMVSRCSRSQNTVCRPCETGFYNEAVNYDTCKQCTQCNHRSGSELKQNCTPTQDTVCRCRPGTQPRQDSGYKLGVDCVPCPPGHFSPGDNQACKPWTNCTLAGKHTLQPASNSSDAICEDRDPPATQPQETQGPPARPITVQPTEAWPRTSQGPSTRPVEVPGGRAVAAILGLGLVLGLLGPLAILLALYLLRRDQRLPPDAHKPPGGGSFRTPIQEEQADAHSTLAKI
Procedure: as §1

[6] = target: T5, chimeric OX40 construct 1547: Human OX40 with mouse domain 2B, module 3 and domain 4A (aa 83-141) (human; mouse, UniProt P47741 79-139); assay: flow cytometry, transfected 293-F cells
T5 construct: domain: 2B, module 3 and domain 4A; On 293-F cells; limits derived as for 1544
T5 sequence: T4 sequence with E40G, T41P, E46D, A47V, N49S, Y50S, D51K, T52P, D111N
Procedure: as §1

[7] = target: T6, construct 84: Construct containing the full length OX40 sequence (human, UniProt P43489 29-277); assay: flow cytometry, transfected 293-F cells
T6 construct: On transiently transfected FreeStyle 293-F cells; also called human OX40 (full length, on 293-F cells)
T6 sequence: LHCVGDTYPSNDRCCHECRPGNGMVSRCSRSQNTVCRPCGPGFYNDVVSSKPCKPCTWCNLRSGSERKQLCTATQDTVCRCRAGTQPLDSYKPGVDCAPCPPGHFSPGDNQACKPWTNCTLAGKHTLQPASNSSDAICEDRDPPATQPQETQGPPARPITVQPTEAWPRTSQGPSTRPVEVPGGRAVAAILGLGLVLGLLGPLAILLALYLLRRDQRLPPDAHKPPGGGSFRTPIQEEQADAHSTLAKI
Procedure: as §1

[8] = target: T7, chimeric OX40 construct 1544: Human OX40 with mouse domains 1A, 1B and 2A (aa 30-81) (human; mouse, UniProt P47741 26-77); assay: flow cytometry, transfected 293-F cells
T7 construct: domain: 1A, 1B and 2A; On transiently transfected FreeStyle 293-F cells
T7 sequence: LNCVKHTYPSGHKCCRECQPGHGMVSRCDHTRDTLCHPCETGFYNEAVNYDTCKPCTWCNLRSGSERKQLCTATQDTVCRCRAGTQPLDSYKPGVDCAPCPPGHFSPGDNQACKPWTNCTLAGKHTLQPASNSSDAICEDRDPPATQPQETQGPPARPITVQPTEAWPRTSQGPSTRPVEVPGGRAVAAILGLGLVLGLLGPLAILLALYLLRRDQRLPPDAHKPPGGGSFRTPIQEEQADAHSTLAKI
Procedure: as §1

relative MFI compared to isotype control [1]: 17.2
B1: anti-OX40 antibody 1514/1515 (antibody, V domains shown)
VH: EVQLLESGGGLVQPGGSLRLSCAASGFTFGYYYMSWVRQAPGKGLEWVSGISSYGSYTYYADSVKGRFTISRDNSKNTLYLQMNSLRAEDTAVYYCARSGYSNWANSFDYWGQGTLVTVSS
VL: DIQMTQSPSSLSASVGDRVTITCRASQSISSYLNWYQQKPGKAPKLLIYAASSLQSGVPSRFSGSGSGTDFTLTISSLQPEDFATYYCQQGDYTLFTFGQGTKLEIK
notes: Tested as IgG

Kd binding ratio [2]: 1.6 | EC50 binding ratio [3]: 3.4
B2: human wild-type CD86 (monomeric soluble extracellular domain), sample 'Wild type' (ligand)
chain: APLKIQAYFNETADLPCQFANSQNQSLSELVVFWQDQENLVLNEVYLGKEKFDSVHSKYMGRTSFDSDSWTLRLHNLQIKDKGLYQCIIHHKKPTGMIRIHQMNSELSVLA
notes: also called wild type protein

Kd binding ratio [2]: 4.7 | EC50 binding ratio [3]: 6.2
B4: CD86 mutant 908 (ligand)
chain: LKIQAYFNETADLPCQFANSQNQSLSELVVFWQDQENLVLNEVYLGKEKFDSVHSKYMGRTSFDSDSWTLRLHNLQIKDKGIYQCIIHHKKPTGMVKIHEMNSELSVLA
notes: Variant of the soluble extracellular domain of human CD86

Kd binding ratio [2]: 5.5 | EC50 binding ratio [3]: 2
B5: CD86 mutant 938 (ligand)
chain: B4 chain with V39I, E100Q
notes: as for B4

Kd binding ratio [2]: 1.9 | EC50 binding ratio [3]: 9.9
B10: CD86 mutant 915 (ligand)
chain: B4 chain with V39I, H54D, I82F, T93S, M95L, V96I, E100Q, N102D
notes: as for B4

relative MFI compared to isotype control [4]: 37.3 | relative MFI compared to isotype control [5]: 0.9 | relative MFI compared to isotype control [6]: 1 | relative MFI compared to isotype control [1]: 1 | relative MFI compared to isotype control [7]: 27.5
B12: anti-OX40 antibody 1164/1135 (antibody, V domains shown)
VH: EVQLLESGGGLVQPGGSLRLSCAASGFTFYGSSMYWVRQAPGKGLEWVSGIYSSGGYTSYADSVKGRFTISRDNSKNTLYLQMNSLRAEDTAVYYCARGVPHGYFDYWGQGTLVTVSS
VL: not shown
notes: Tested as IgG

relative MFI compared to isotype control [1]: 1.1
B13: anti-OX40 antibody 1490/1135 (antibody, V domains shown)
VH: EVQLLESGGGLVQPGGSLRLSCAASGFTFSSYAMSWVRQAPGKGLEWVSGISYYGGYTYYADSVKGRFTISRDNSKNTLYLQMNSLRAEDTAVYYCARYYPHHYIDYWGQGTLVTVSS
VL: not shown
notes: Tested as IgG

relative MFI compared to isotype control [8]: 1.5 | relative MFI compared to isotype control [4]: 0.9 | relative MFI compared to isotype control [5]: 0.9 | relative MFI compared to isotype control [6]: 1 | relative MFI compared to isotype control [1]: 15.4 | relative MFI compared to isotype control [7]: 31.4
B14: anti-OX40 antibody 1524/1525 (antibody, V domains shown)
VH: EVQLLESGGGLVQPGGSLRLSCAASGFTFGSYYMGWVRQAPGKGLEWVSSIGSYYGYTYYADSVKGRFTISRDNSKNTLYLQMNSLRAEDTAVYYCARHDYGALDYWGQGTLVTVSS
VL: DIQMTQSPSSLSASVGDRVTITCRASQSISSYLNWYQQKPGKAPKLLIYAASSLQSGVPSRFSGSGSGTDFTLTISSLQPEDFATYYCQQYGPSGLFTFGQGTKLEIK
notes: Tested as IgG

relative MFI compared to isotype control [1]: 20.3
B16: anti-OX40 antibody 1170/1171 (antibody, V domains shown)
VH: EVQLLESGGGLVQPGGSLRLSCAASGFTFGGYYMSWVRQAPGKGLEWVSYIPGSGGSTYYADSVKGRFTISRDNSKNTLYLQMNSLRAEDTAVYYCARYDYYWMDYWGQGTLVTVSS
VL: B14 VL with Y91G, G92H, P93G, G95Y, L96P, F97H
notes: Tested as IgG

More lines, now with the values behind:

B3: CD86 mutant 910 (ligand)
chain: B4 chain with H54D
notes: as for B4
Kd binding ratio [2]: 5.1 | EC50 binding ratio [3]: 7.7

B6: CD86 mutant 904 (ligand)
chain: B4 chain with V29I, K49R, S52A, H54D, T93S, E100Q, N102D
notes: as for B4
Kd binding ratio [2]: 6.8 | EC50 binding ratio [3]: 12.2

B7: CD86 mutant 906 (ligand)
chain: B4 chain with F7I, Q23L, K49R, H54D, I82F, M95L
notes: as for B4
Kd binding ratio [2]: 0.8 | EC50 binding ratio [3]: 16.2

B8: CD86 mutant 907 (ligand)
chain: B4 chain with I82L, V96I
notes: as for B4
Kd binding ratio [2]: 5.6 | EC50 binding ratio [3]: 30.5

B9: CD86 mutant 900 (ligand)
chain: B4 chain with H54D, I86V, T93S, M95L
notes: as for B4
EC50 binding ratio [3]: 3.5

B11: CD86 mutant 901 (ligand)
chain: B4 chain with Q23L, S24T, I86V, V96I, A109T
notes: as for B4
Kd binding ratio [2]: 2.7 | EC50 binding ratio [3]: 17.2

B15: anti-OX40 antibody 1166/1167 (antibody, V domains shown)
VH: B16 VH with Y50A, P52S, Y102A, W103S
VL: B14 VL with G92Y, P93W, S94Y, F97S
notes: also called monospecific OX40 antibody
relative MFI compared to isotype control [1]: 15.8

From patent US20200048358A1 (ALLIGATOR BIOSCIENCE, published 2020)
